In the RNAGym collection of RNA variant scans (doi:10.7554/elife.80360) one finds self-cleavage data, which are given here for 167 variants.

First the molecules themselves.
B1: Twister Ribozyme (parent)
chain: AACACUGCCAAUGCCGGUCCCAAGCCCGGAUAAAAGUGGAGGGGGCGG

Variants of B1 are the subject of this data set. The data set can be described thus: self-cleavage, relative activity (ratio to wild type); higher = more cleavage; co-transcriptional.
G7A A40U: the self-cleavage came out at 0.127.

G7A A40C: the self-cleavage worked out at 0.132. The figure for G7U G41C is 0.111; for C8A A30G it is 0.567. The value for U6G G43U was 0.184. Take U6G G45U: the self-cleavage came out at 0.129. The figure for U6G G45C is 0.104; for C8G A32G it is 0.275; for C8G A32C it is 0.323.

With C8G A32U, the self-cleavage was determined as 0.322. The value for G7U A33U was 0.109; that for U6G G38U was 0.223; that for G7C A30C was 0.0728.

Regarding G7C A30U, the self-cleavage came out at 0.0697. The figure for G7A C21U is 0.103; for G7A C21A it is 0.059.

Take G7U A30U: the self-cleavage worked out at 0.0836. The value for G7U A30C was 0.0485; that for G7U C21U was 0.0705.

As to G7U C21G, the self-cleavage amounted to 0.0215. The value for G7A A11C was 0.0895; that for G7A U31G was 0.647. The figure for G7A U31C is 0.451; for C8A G38U it is 0.169; for U6G G29U it is 0.173. The value for G7C A40C was 0.0472; that for G7C A40U was 0.0764; that for G7A A34U was 0.154. For G7A C26U, the self-cleavage came to 0.102. The value for G7A C26G was 0.0601; that for G7A C27A was 0.112; that for G7A G41U was 0.11. The value for G7A A35G was 0.123.

For the variant G7A A35U, the self-cleavage amounted to 0.546. The figure for G7U G43C is 0.0634; for G7U G43A it is 0.0755. The value for C8A A11G was 0.588; that for C8A A11U was 0.7. For C8A A11C, the self-cleavage came to 0.514. The figure for G7U U31A is 0.133. The value for G7U U31G was 0.131; that for G7C G48C was 0.0656.

On to G7U A35G, for which the self-cleavage worked out at 0.0839.

On to G7U A35U, for which the self-cleavage turned out to be 0.109. The figure for G7U A35C is 0.0996.

In the case of C8A G44A, the self-cleavage worked out at 0.555. With C8A C15G, the self-cleavage was 0.0688.

Take C8A C15U: the self-cleavage came to 0.365. For C8A A33G, the self-cleavage turned out to be 0.228.

As for C8A A33U, the self-cleavage is 0.28. The value for G7C C25A was 0.0795; that for G7C C25G was 0.218. The value for G7A C25A was 0.0809. The figure for G7A C25G is 0.237; for G7C C9U it is 0.101. For the variant G7C C9G, the self-cleavage is 0.0747. Turning to G7A A23C, the self-cleavage was 0.0662. The value for G7A A23U was 0.12. The value for U6G G44U was 0.242. The figure for G7C C8G is 0.0684. As for G7C C8U, the self-cleavage is 0.0597. The figure for G7A G45U is 0.177; for C8G A34U it is 0.553; for C8G A34C it is 0.121. The figure for C8G A34G is 0.276.

As for G7C C20U, the self-cleavage came out at 0.122. The value for G7C C20G was 0.0473; that for G7C C15A was 0.0454.

For G7C C15G, the self-cleavage amounted to 0.0181. The figure for C8G A33C is 0.203; for G7C A23U it is 0.0664. The value for U6G G24A was 0.0855. The figure for G7U C26A is 0.0629. Take G7U C26G: the self-cleavage is 0.0462. G7U C19U: the self-cleavage was 0.0568. Take G7U C19G: the self-cleavage worked out at 0.0806. The figure for G7A C15G is 0.0625. As to G7C G38A, the self-cleavage worked out at 0.0835. As to G7C G38C, the self-cleavage was found to be 0.0787. The value for G7C G38U was 0.071; that for G7C U12C was 0.0838. The value for G7A U12G was 0.381; that for G7A U12C was 0.455; that for U6G C20U was 0.236. For the variant U6G C20G, the self-cleavage was 0.0753. The figure for G7A G38C is 0.348; for G7A G38A it is 0.0994; for G7A G39A it is 0.171. The value for G7A G39U was 0.15. In the case of G7A G39C, the self-cleavage was 0.141. The value for C8A was 0.61. The value for C8G was 0.558; that for C8A C27U was 0.101. The value for G7A G17A was 0.083. On to G7A G17U, for which the self-cleavage amounted to 0.103.

As to G7C C21G, the self-cleavage was 0.0593. The value for G7C C21U was 0.0396; that for G7U C14U was 0.0997. The value for C8G G29C was 0.077; that for C8G G29A was 0.3; that for C8G G29U was 0.156. On to G7U G17U, for which the self-cleavage was 0.0401.

Turning to G7U C15A, the self-cleavage was 0.0847. The figure for C8A G24C is 0.31; for C8A G24U it is 0.841; for G7C A34C it is 0.118. The value for G7C A34U was 0.067. Consider G7C A34G, for which the self-cleavage worked out at 0.061.

On to G7C A11U, for which the self-cleavage came to 0.0693. The figure for G7C A11C is 0.0664; for C8A C20G it is 0.0882; for G7A G28U it is 0.28. The figure for G7U G29A is 0.0635; for G7U G29C it is 0.0397. The figure for G7C G17U is 0.0545. In the case of G7A G47C, the self-cleavage was 0.185.

For G7A G47U, the self-cleavage turned out to be 0.19. The value for G7A G36A was 0.109; that for C8A G39C was 0.148.

In the case of C8A G39A, the self-cleavage came out at 0.154. The figure for G7U C25A is 0.224; for G7U C25U it is 0.302; for C8G A23U it is 0.103. With C8G A23G, the self-cleavage was determined as 0.0516. The figure for G7A C14U is 0.43; for G7A C14G it is 0.0811.

As to U6G G41C, the self-cleavage is 0.092. With C8G G36C, the self-cleavage was 0.119. The value for G7U G24U was 0.0676.

For the variant G7U G24C, the self-cleavage is 0.0734.

For the variant G7C A10G, the self-cleavage was determined as 0.0662. The figure for G7C A10C is 0.0829; for G7C A10U it is 0.0545; for C8A G28U it is 0.22. As to C8A G28C, the self-cleavage worked out at 0.159. The value for U6G G7C was 0.873. The value for G7C G44U was 0.0818. The value for G7C G44A was 0.0625. On to U6G C21U, for which the self-cleavage was 0.0405. Turning to U6G C21A, the self-cleavage is 0.0289. The value for G7C U37C was 0.0652.

On to G7U C20A, for which the self-cleavage came out at 0.0332. On to C8G G17A, for which the self-cleavage stood at 0.0824. The value for C8G G17U was 0.0532; that for C8G G17C was 0.07. The figure for G7A A30G is 0.405; for G7U A23U it is 0.0674. The figure for G7C C14U is 0.0373; for G7C G16C it is 0.13; for C8G G42A it is 0.131. For C8G G42C, the self-cleavage stood at 0.221.

Take C8G G41A: the self-cleavage amounted to 0.179.

Consider C8G G41C, for which the self-cleavage came to 0.122. The value for C8A C21U was 0.107; that for U6G U18C was 0.131. The figure for U6G U18A is 0.0684.

Take G7C G36C: the self-cleavage is 0.0549. The figure for C8G C15A is 0.0877; for C8G C15U it is 0.534. Take G7A G24U: the self-cleavage was 0.0739. The figure for G7U A34C is 0.0467; for G7U A34G it is 0.0851.

For G7U G44A, the self-cleavage amounted to 0.19. The value for G7U G44U was 0.0819; that for G7A G44A was 0.619; that for G7A G44C was 0.322.

With G7A G44U, the self-cleavage was determined as 0.422.
